Biological target: T1, SARS-CoV-2 full-length spike, WT D614G, expressed on the cell surface (SARS-CoV-2, wild type with D614G, UniProt A0A6H1PJZ3, D614G)
T1 construct: also called wild-type spike
Assay: flow cytometry on cells
Details: one partner purified

B1: REGN10987 (class III) (antibody, V domains shown)
VH: QVQLVESGGGVVQPGRSLRLSCAASGFTFSNYAMYWVRQAPGKGLEWVAVISYDGSNKYYADSVKGRFTISRDNSKNTLYLQMNSLRTEDTAVYYCASGSDYGDYLLVYWGQGTLVTVSS
VL: QSALTQPASVSGSPGQSITISCTGTSSDVGGYNYVSWYQQHPGKAPKLMIYDVSKRPSGVSNRFSGSKSGNTASLTISGLQSEDEADYYCNSLTSISTWVFGGGTKLTVL
B1: binds.

— article PMC8710476 (Frontiers in Immunology, 2021)
